Assay results published in patent US20190077860A1 (EISAI R AND D MANAGEMENT, published 2019).
Where a chain is given by its changes, count along the chain named. Names and notes keep the numbering of the source.

T1: human EphA1 extracellular region-SEAP-His protein (human, UniProt P21709 26-547)
T1 construct: extracellular domain; also called hEphA1-SEAP-His
T1 sequence (looked up): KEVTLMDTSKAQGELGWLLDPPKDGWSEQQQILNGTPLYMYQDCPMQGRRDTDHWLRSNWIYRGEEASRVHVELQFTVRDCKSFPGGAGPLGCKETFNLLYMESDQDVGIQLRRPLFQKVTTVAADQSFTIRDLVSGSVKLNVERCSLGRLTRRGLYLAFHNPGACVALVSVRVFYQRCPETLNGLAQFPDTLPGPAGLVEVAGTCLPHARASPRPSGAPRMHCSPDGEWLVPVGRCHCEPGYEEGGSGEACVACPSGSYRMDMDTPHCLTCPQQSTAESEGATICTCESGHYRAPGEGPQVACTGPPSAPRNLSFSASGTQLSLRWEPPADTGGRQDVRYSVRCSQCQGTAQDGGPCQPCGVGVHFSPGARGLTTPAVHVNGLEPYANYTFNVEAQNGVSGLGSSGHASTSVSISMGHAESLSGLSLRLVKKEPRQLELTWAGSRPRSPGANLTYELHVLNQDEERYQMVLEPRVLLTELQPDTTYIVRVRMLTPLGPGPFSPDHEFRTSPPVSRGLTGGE

T2: human EphB6 extracellular region-SEAP-His protein (human, UniProt O15197 32-594)
T2 construct: extracellular domain; also called hEphB6-SEAP-His
T2 sequence (looked up): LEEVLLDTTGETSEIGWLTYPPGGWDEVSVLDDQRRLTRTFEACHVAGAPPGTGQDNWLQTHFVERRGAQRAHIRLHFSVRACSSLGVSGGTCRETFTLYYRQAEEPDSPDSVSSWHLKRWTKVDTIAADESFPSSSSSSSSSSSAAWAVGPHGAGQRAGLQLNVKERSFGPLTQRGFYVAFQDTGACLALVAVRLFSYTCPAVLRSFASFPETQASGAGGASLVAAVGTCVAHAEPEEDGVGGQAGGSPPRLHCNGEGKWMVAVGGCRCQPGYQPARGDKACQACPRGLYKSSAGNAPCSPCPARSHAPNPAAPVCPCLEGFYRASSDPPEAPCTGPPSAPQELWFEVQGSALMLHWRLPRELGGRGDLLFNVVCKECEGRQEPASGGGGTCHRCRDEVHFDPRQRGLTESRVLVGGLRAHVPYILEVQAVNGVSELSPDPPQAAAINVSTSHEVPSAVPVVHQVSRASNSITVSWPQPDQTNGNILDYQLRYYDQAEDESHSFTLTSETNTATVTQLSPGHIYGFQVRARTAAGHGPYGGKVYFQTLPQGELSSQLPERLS

T3: human EphA7 extracellular region-SEAP-His protein (human, UniProt Q15375 28-555)
T3 construct: extracellular domain; also called hEphA7-SEAP-His
T3 sequence (looked up): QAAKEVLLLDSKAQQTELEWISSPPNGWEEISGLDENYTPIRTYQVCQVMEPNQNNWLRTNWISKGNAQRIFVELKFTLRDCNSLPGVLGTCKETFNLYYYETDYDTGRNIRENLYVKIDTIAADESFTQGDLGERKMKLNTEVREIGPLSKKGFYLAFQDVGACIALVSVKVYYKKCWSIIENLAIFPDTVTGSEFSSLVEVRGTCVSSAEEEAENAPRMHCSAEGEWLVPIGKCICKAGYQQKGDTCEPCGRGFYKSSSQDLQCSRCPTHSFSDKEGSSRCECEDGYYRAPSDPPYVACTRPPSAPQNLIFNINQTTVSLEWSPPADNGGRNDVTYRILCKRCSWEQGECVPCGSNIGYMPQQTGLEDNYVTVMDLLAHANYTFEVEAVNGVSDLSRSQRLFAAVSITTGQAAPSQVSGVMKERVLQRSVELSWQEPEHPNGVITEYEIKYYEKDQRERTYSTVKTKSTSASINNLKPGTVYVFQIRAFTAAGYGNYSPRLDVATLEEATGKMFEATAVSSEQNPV

T4: human EphB3 extracellular region-SEAP-His protein (human, UniProt P54753 34-559)
T4 construct: extracellular domain; also called hEphB3-SEAP-His
T4 sequence (looked up): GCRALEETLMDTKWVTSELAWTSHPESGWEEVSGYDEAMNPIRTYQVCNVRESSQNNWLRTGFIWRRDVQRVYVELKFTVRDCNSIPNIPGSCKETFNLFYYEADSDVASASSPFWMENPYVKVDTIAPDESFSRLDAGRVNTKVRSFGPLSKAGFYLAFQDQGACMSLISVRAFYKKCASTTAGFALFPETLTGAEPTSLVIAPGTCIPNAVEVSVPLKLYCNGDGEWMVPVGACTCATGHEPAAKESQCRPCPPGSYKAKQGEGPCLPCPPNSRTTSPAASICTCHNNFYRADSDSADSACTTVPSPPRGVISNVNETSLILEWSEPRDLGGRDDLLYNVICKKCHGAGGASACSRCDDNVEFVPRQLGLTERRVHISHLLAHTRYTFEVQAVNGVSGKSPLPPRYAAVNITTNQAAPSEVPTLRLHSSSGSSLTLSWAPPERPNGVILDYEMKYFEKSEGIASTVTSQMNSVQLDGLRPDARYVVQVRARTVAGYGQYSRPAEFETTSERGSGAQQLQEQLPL

B1: humanized antibody No. 76 (antibody, human IgG1, kappa)
heavy: QVQLVQSGSELKKPGASVKVSCKASGYTFTDYSMHWVRQAPGQGLKWMGWINTETGEPTYAQGFTGRFVFSLDTSVSTAYLQISSLKAEDTAVYYCARIPLYYYGSRYWYFDVWGQGTTVTVSSASTKGPSVFPLAPSSKSTSGGTAALGCLVKDYFPEPVTVSWNSGALTSGVHTFPAVLQSSGLYSLSSVVTVPSSSLGTQTYICNVNHKPSNTKVDKRVEPKSCDKTHTCPPCPAPPAAAPSVFLFPPKPKDTLMISRTPEVTCVVVDVSHEDPEVQFNWYVDGVEVHNAKTKPREEQFNSTFRVVSVLTVVHQDWLNGKEYKCKVSNKGLPAPIEKTISKTKGQPREPQVYTLPPSREEMTKNQVSLTCLVKGFYPSDIAVEWESNGQPENNYKTTPPMLDSDGSFFLYSKLTVDKSRWQQGNVFSCSVMHEALHNHYTQKSLSLSPG
light: DIQMTQSPSSLSASVGDRVTITCRASENIYRNLAWYQQKPGKAPKLLVYAATNLADGVPSRFSGSGSGTDYTLTISSLQPEDFATYYCQHFWGTPWTFGQGTKVEIKRTVAAPSVFIFPPSDEQLKSGTASVVCLLNNFYPREAKVQWKVDNALQSGNSQESVTEQDSKDSTYSLSSTLTLSKADYEKHKVYACEVTHQGLSSPVTKSFNRGEC
notes: human Ig kappa; also called L1-4/HA2
B2: humanized antibody No. 81 (antibody, human IgG1, kappa)
heavy: B1 heavy with K46E
light: B1 light with V48L, P80S
notes: human Ig kappa; also called L1-5/HA1
B3: humanized antibody No. 82 (antibody, human IgG1, kappa)
heavy: B1 heavy
light: B1 light with V48L, P80S
notes: human Ig kappa; also called L1-5/HA2
B4: humanized antibody No. 69 (antibody, human IgG1, kappa)
heavy: B1 heavy with V2I, Q62D, G63D, T65K
light: B1 light
notes: human Ig kappa; also called L1-4/HK4
B5: humanized antibody No. 78 (antibody, human IgG1, kappa)
heavy: B1 heavy with Q62D, G63D, T65K
light: B1 light
notes: human Ig kappa; also called L1-4/HK2
B6: humanized antibody No. 67 (antibody, human IgG1, kappa)
heavy: B1 heavy with V2I
light: B1 light
notes: human Ig kappa; also called L1-4/HA4
B7: humanized antibody No. 83 (antibody, human IgG1, kappa)
heavy: B1 heavy with V2I
light: B1 light with V48L, P80S
notes: human Ig kappa; also called L1-5/HA4
B8: humanized antibody No. 85 (antibody, human IgG1, kappa)
heavy: B1 heavy with Q62D, G63D, T65K
light: B1 light with V48L, P80S
notes: human Ig kappa; also called L1-5/HK2
B9: humanized antibody No. 75 (antibody, human IgG1, kappa)
heavy: B1 heavy with K46E
light: B1 light
notes: constant region: human IgG1 CH1 and hinge, human IgG2 CH2 and CH3 with V234A, G237A, no C-terminal Lys; human Ig kappa; also called L1-4/HA1
B10: humanized antibody No. 77 (antibody, human IgG1, kappa)
heavy: B1 heavy with K46E, Q62D, G63D, T65K
light: B1 light
notes: human Ig kappa; also called L1-4/HK1
B11: humanized antibody No. 84 (antibody, human IgG1, kappa)
heavy: B1 heavy with K46E, Q62D, G63D, T65K
light: B1 light with V48L, P80S
notes: human Ig kappa; also called L1-5/HK1

Target: T1, human EphA1 extracellular …
Assay: ELISA

Row | Binder | A450 as % of hEphA4-SEAP-His [%]
1 | B1 | 5.1
2 | B2 | 4.4
3 | B3 | 5.4
4 | B4 | 5.7
5 | B5 | 6.6
6 | B6 | 4.6
7 | B7 | 5.7
8 | B8 | 5
9 | B9 | 4.7
10 | B10 | 4.5
11 | B11 | 5.2

Target: T5, human EphA5 extracellular region-SEAP-His protein (human, UniProt P54756 25-573)
T5 construct: extracellular domain; also called hEphA5-SEAP-His
T5 sequence (P54756 25-573): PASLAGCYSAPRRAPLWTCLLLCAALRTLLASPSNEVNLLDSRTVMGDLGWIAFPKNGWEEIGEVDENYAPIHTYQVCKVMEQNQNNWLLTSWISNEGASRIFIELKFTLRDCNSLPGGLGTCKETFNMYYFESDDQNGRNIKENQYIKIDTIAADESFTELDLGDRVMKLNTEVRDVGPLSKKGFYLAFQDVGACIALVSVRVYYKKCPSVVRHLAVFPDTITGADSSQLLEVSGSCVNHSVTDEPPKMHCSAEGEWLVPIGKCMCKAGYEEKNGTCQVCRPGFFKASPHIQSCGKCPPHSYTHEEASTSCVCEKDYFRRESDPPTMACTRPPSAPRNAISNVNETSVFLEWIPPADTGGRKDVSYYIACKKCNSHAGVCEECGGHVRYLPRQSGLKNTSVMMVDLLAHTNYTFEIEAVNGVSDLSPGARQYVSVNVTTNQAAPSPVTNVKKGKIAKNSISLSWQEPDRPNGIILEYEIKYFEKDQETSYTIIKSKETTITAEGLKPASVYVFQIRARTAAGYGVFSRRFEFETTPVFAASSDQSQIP
Assay: ELISA

Row | Binder | A450 as % of hEphA4-SEAP-His [%]
12 | B1 | 5.3
13 | B2 | 4.9
14 | B3 | 6.5
15 | B4 | 5.6
16 | B5 | 5.1
17 | B6 | 4.8
18 | B7 | 5.8
19 | B8 | 5
20 | B9 | 4.7
21 | B10 | 4.4
22 | B11 | 5

Target: T2, human EphB6 extracellular …
Assay: ELISA

Row | Binder | A450 as % of hEphA4-SEAP-His [%]
23 | B1 | 5.2
24 | B2 | 5
25 | B3 | 5.5
26 | B4 | 5.6
27 | B5 | 5.2
28 | B6 | 4.7
29 | B7 | 5.8
30 | B8 | 5.2
31 | B9 | 4.7
32 | B10 | 4.5
33 | B11 | 4.9

Target: T3, human EphA7 extracellular …
Assay: ELISA

Row | Binder | A450 as % of hEphA4-SEAP-His [%]
34 | B1 | 4.8
35 | B2 | 5.2
36 | B3 | 5.4
37 | B4 | 5.3
38 | B5 | 5
39 | B6 | 4.7
40 | B7 | 5.5
41 | B8 | 4.8
42 | B9 | 4.7
43 | B10 | 4.3
44 | B11 | 4.8

Target: SEAP-His (UniProt P05187 23-511)
Sequence (P05187 23-511): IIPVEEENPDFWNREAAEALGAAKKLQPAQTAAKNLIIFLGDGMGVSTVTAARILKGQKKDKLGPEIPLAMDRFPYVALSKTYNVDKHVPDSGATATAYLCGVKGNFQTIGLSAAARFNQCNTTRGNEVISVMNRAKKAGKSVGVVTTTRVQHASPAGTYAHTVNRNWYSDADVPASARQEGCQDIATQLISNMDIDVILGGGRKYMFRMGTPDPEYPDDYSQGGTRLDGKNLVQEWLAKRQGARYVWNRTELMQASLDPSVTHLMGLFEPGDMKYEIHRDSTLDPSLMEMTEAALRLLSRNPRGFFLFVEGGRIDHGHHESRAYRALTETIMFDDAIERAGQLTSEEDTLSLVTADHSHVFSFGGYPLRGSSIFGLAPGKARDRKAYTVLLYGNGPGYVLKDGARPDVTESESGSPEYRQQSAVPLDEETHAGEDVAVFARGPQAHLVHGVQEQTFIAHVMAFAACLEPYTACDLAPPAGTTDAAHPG
Assay: ELISA

Row | Binder | A450 as % of hEphA4-SEAP-His [%]
45 | B1 | 5.5
46 | B2 | 5
47 | B3 | 5.9
48 | B4 | 6.1
49 | B5 | 5.3
50 | B6 | 5
51 | B7 | 6.5
52 | B8 | 5.3
53 | B9 | 4.4
54 | B10 | 4.7
55 | B11 | 5.1

Target: T4, human EphB3 extracellular …
Assay: ELISA

Row | Binder | A450 as % of hEphA4-SEAP-His [%]
56 | B1 | 5
57 | B2 | 4.9
58 | B3 | 5.6
59 | B4 | 5.9
60 | B5 | 5.2
61 | B6 | 4.9
62 | B7 | 5.7
63 | B8 | 5.2
64 | B9 | 4.7
65 | B10 | 4.6
66 | B11 | 4.8
